± gives the standard error. For part of these data: Fewer inactive variants are shown than the library holds.
B1: glmS ribozyme (parent)
chain: AUAAAAGCGCCAGAACUACAGAAAUGUAGUUGACGAGGAGGAGGUUUAUCGAAUUUUCGGCGGAUGCCUCCAAA

Assays:
Details in all cases: with glucosamine-6-phosphate
glucosamine-6-phosphate [1] = variants of: B1; assay: kcat; higher = faster cleavage; RNA array
Procedure, shortened: (§1)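 E. coli RNA polymerase transcribed barcoded ribozyme variants in situ on sequenced MiSeq chips, which were tracked via a hybridised Cy3 probe at 37 °C. Tiles were imaged over ~14 h after glucosamine-6-phosphate (40 μM to 10 mM) in HEPES/KCl/Mg(OAc)2 buffer was flowed in. Normalised per-tile medians were fit to one- or two-exponential decays for kobs, and kcat and KM came from weighted Michaelis–Menten fits.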

glucosamine-6-phosphate [2] = variants of: B1; assay: KM; higher = weaker cofactor use; RNA array
Procedure, shortened: as §1

glucosamine-6-phosphate [3] = variants of: B1; assay: self-cleavage kobs at 40 uM GlcN6P; higher = faster cleavage; RNA array
Procedure, shortened: as §1

glucosamine-6-phosphate [4] = variants of: B1; assay: self-cleavage kobs at 160 uM GlcN6P; higher = faster cleavage; RNA array
Procedure, shortened: as §1

glucosamine-6-phosphate [5] = variants of: B1; assay: self-cleavage kobs at 640 uM GlcN6P; higher = faster cleavage; RNA array
Procedure, shortened: as §1

glucosamine-6-phosphate [6] = variants of: B1; assay: self-cleavage kobs at 2500 uM GlcN6P; higher = faster cleavage; RNA array
Procedure, shortened: as §1

glucosamine-6-phosphate [7] = variants of: B1; assay: self-cleavage kobs at 10000 uM GlcN6P; higher = faster cleavage; RNA array
Procedure, shortened: as §1

Variant | kcat (glucosamine-6-phosphate [1]) | KM (glucosamine-6-phosphate [2]) | self-cleavage kobs at 40 uM GlcN6P (glucosamine-6-phosphate [3]) | self-cleavage kobs at 160 uM GlcN6P (glucosamine-6-phosphate [4]) | self-cleavage kobs at 640 uM GlcN6P (glucosamine-6-phosphate [5]) | self-cleavage kobs at 2500 uM GlcN6P (glucosamine-6-phosphate [6]) | self-cleavage kobs at 10000 uM GlcN6P (glucosamine-6-phosphate [7])
G13A A14G | 0.00208 ± 0.00043 s⁻¹ | 3430 ± 1000 µM | 3.73e-05 ± 1.1e-05 s⁻¹ | 7.81e-05 ± 1.4e-05 s⁻¹ | 0.000393 ± 6.9e-05 s⁻¹ | 0.000888 ± 0.00012 s⁻¹ | 0.00151 ± 0.00023 s⁻¹
A12U U31G U47C | 0.000915 ± 0.00036 s⁻¹ |  |  |  | 0.000923 ± 0.00024 s⁻¹ | 0.00136 ± 0.00036 s⁻¹ | 0.000748 ± 0.00013 s⁻¹
G13C U45A | 0.000315 ± 0.00011 s⁻¹ |  |  |  | 6.93e-05 ± 3.2e-05 s⁻¹ | 9.3e-05 ± 2.3e-05 s⁻¹ | 0.000213 ± 3.9e-05 s⁻¹
G13C U45G | 3.74e-05 ± 3.6e-06 s⁻¹ |  | < 1e-05 s⁻¹ |  |  |  | 3.22e-05 ± 1.2e-05 s⁻¹
G13C U56C | 2.35e-05 ± 6.9e-08 s⁻¹ | 1100 ± 19 µM | < 1e-05 s⁻¹ |  |  |  | 2.11e-05 ± 8e-06 s⁻¹
A12U G41C | 0.000373 ± 8.7e-05 s⁻¹ | 1830 ± 770 µM |  | 2.68e-05 ± 1.1e-05 s⁻¹ | 0.000108 ± 1.2e-05 s⁻¹ | 0.000168 ± 2.7e-05 s⁻¹ | 0.000373 ± 5e-05 s⁻¹
A12U G66U | 0.00516 ± 0.00082 s⁻¹ | 1550 ± 380 µM | 0.000146 ± 1.8e-05 s⁻¹ | 0.000589 ± 0.0001 s⁻¹ | 0.00128 ± 0.00014 s⁻¹ | 0.00319 ± 0.00044 s⁻¹ | 0.00479 ± 0.00055 s⁻¹
G13C U31C G32U U65G C67U | 6.88e-05 ± 4.5e-06 s⁻¹ | 3040 ± 640 µM |  |  |  |  | 5.26e-05 ± 1.4e-05 s⁻¹
G13U A15G G32A C70G | 9.35e-05 ± 2.2e-06 s⁻¹ | 405 ± 40 µM |  |  | 5.48e-05 ± 1.7e-05 s⁻¹ | 8.14e-05 ± 1.6e-05 s⁻¹ | 8.98e-05 ± 1.9e-05 s⁻¹
G13C U30C A52G | 1.64e-05 ± 4.9e-06 s⁻¹ |  |  |  |  |  | 
A12U G44U U47G | 1.54e-05 ± 2.4e-06 s⁻¹ |  |  |  |  |  | 
G13C G40C | 4.48e-05 ± 2e-05 s⁻¹ |  | < 1e-05 s⁻¹ | < 1e-05 s⁻¹ |  |  | 
G13A U54A | 0.000832 ± 0.00029 s⁻¹ |  | 5.62e-05 ± 2.4e-05 s⁻¹ | 5.51e-05 ± 1.6e-05 s⁻¹ | 0.000147 ± 3.8e-05 s⁻¹ | 0.000299 ± 5.6e-05 s⁻¹ | 0.000709 ± 0.0001 s⁻¹
G13A U54G | 0.000682 ± 7.9e-05 s⁻¹ | 2540 ± 550 µM |  | 5.52e-05 ± 1.8e-05 s⁻¹ | 0.000123 ± 2.4e-05 s⁻¹ | 0.000363 ± 6.1e-05 s⁻¹ | 0.000537 ± 7.4e-05 s⁻¹
G13C A14U | 0.000311 ± 2.1e-05 s⁻¹ | 2100 ± 320 µM |  |  | 6.86e-05 ± 1.5e-05 s⁻¹ | 0.000186 ± 3e-05 s⁻¹ | 0.00025 ± 3.1e-05 s⁻¹
G13U A53G C68G | 4.16e-05 ± 3.1e-06 s⁻¹ |  |  |  |  | 4.16e-05 ± 1.5e-05 s⁻¹ | 
G13A G37U | 1.65e-05 ± 1.7e-06 s⁻¹ | 621 ± 190 µM | < 1e-05 s⁻¹ |  |  |  | < 1e-05 s⁻¹

Variant | kcat (glucosamine-6-phosphate [1]) | KM (glucosamine-6-phosphate [2]) | self-cleavage kobs at 40 uM GlcN6P (glucosamine-6-phosphate [3]) | self-cleavage kobs at 160 uM GlcN6P (glucosamine-6-phosphate [4]) | self-cleavage kobs at 640 uM GlcN6P (glucosamine-6-phosphate [5]) | self-cleavage kobs at 2500 uM GlcN6P (glucosamine-6-phosphate [6]) | self-cleavage kobs at 10000 uM GlcN6P (glucosamine-6-phosphate [7])
G13A U55C | 0.000582 ± 0.00014 s⁻¹ | 2910 ± 1300 µM |  | 3.73e-05 ± 1.6e-05 s⁻¹ | 0.000123 ± 1.6e-05 s⁻¹ | 0.000191 ± 3.5e-05 s⁻¹ | 0.000492 ± 4.8e-05 s⁻¹
G13U A53G | 0.0022 ± 0.00047 s⁻¹ | 4460 ± 1300 µM | 2.14e-05 ± 9.7e-06 s⁻¹ | 8.17e-05 ± 1e-05 s⁻¹ | 0.00029 ± 3.4e-05 s⁻¹ | 0.000631 ± 9.5e-05 s⁻¹ | 0.00168 ± 0.0002 s⁻¹
G13U A53U | 0.00139 ± 4.1e-05 s⁻¹ | 3550 ± 190 µM |  | 5.58e-05 ± 2e-05 s⁻¹ | 0.000213 ± 3.9e-05 s⁻¹ | 0.000584 ± 0.00011 s⁻¹ | 0.00103 ± 0.00011 s⁻¹
G13C A14C U45A | 0.000417 ± 0.00017 s⁻¹ |  |  |  |  | 0.000212 ± 4.3e-05 s⁻¹ | 0.000262 ± 5.6e-05 s⁻¹
A12U U47G U57C | 0.000776 ± 0.00016 s⁻¹ | 8650 ± 3200 µM |  |  |  | 0.000172 ± 4.9e-05 s⁻¹ | 0.000417 ± 6.9e-05 s⁻¹
G13U A15C U54C | 0.000132 ± 1.2e-05 s⁻¹ |  |  |  |  | 0.00013 ± 3.3e-05 s⁻¹ | 0.000122 ± 1.9e-05 s⁻¹
A12U U54G | 0.0434 ± 0.021 s⁻¹ |  | 0.00183 ± 0.00035 s⁻¹ | 0.00452 ± 0.00078 s⁻¹ | 0.0495 ± 0.012 s⁻¹ | 0.0405 ± 0.019 s⁻¹ | 0.0363 ± 0.0092 s⁻¹
G13C C16A | 0.000101 ± 1.7e-06 s⁻¹ | 712 ± 55 µM |  |  | 4.82e-05 ± 1.7e-05 s⁻¹ | 7.81e-05 ± 1.4e-05 s⁻¹ | 9.42e-05 ± 1.4e-05 s⁻¹
G13U C68A C70G | 2.66e-05 ± 2.1e-06 s⁻¹ | 139 ± 65 µM | < 1e-05 s⁻¹ |  |  |  | < 1e-05 s⁻¹
G13C G29U | 0.000169 ± 1.6e-05 s⁻¹ | 3700 ± 710 µM |  |  | 3.22e-05 ± 1.3e-05 s⁻¹ | 6.58e-05 ± 8.4e-06 s⁻¹ | 0.000125 ± 1.6e-05 s⁻¹
A12U G40C | 0.00584 ± 0.0009 s⁻¹ | 1420 ± 310 µM | 0.000175 ± 2e-05 s⁻¹ | 0.000567 ± 9.5e-05 s⁻¹ | 0.0014 ± 0.00029 s⁻¹ | 0.00529 ± 0.0011 s⁻¹ | 0.00509 ± 0.00057 s⁻¹
G13A C50A | < 1e-05 s⁻¹ |  | < 1e-05 s⁻¹ |  |  |  | < 1e-05 s⁻¹
G13C C71G | 2.45e-05 ± 2.8e-06 s⁻¹ |  |  |  |  |  | 
G13A U47C | 8.51e-05 ± 5.3e-06 s⁻¹ | 7300 ± 1000 µM |  |  |  |  | 4.92e-05 ± 1.1e-05 s⁻¹
G13A U47G | 0.000123 ± 1.6e-05 s⁻¹ | 1830 ± 670 µM |  |  | 2.44e-05 ± 9.5e-06 s⁻¹ | 8.26e-05 ± 1.3e-05 s⁻¹ | 9.97e-05 ± 1.3e-05 s⁻¹
G13A U45G | 8.96e-05 ± 7.9e-06 s⁻¹ | 4310 ± 840 µM |  |  |  | 3.13e-05 ± 8.3e-06 s⁻¹ | 6.32e-05 ± 1e-05 s⁻¹
G13C U31C | 0.0015 ± 0.00033 s⁻¹ | 3460 ± 1200 µM | 3.14e-05 ± 1e-05 s⁻¹ | 0.000104 ± 4.3e-05 s⁻¹ | 0.000211 ± 2.9e-05 s⁻¹ | 0.000748 ± 0.00013 s⁻¹ | 0.00109 ± 0.00014 s⁻¹
